Measured values from US8927207B2, “miRNAs as therapeutic targets in cancer” (Research Foundation of State University of New York, priority 2008, dated 2015).

Experiments:
HCT-116 (wt-p53) cells [1] = assay: WST-1 cell proliferation with MTX treatment after transfection; format: cell-based, human; settings: 72 hours
Description: HCT-116 (wt-p53) cells were plated in 96-well plates at 1×10^3 cells/well in triplicate. They were transfected with miR-192 precursor (FIG. 3, lane 4), non-specific control miRNA (FIG. 3, lane 2), or siRNA against DHFR (FIG. 3, lane 3) in 100 μl of medium. […] Ten microliters of WST-1 (Roche Applied Science) was added to each well. After 2 hours of incubation, absorbance was measured at 450 and 630 nm respectively (n=3).

HCT-116 (null-p53) cells = assay: cell cycle analysis by flow cytometry; format: cell-based, human
Description: (§1) To determine whether the miR-192's impact on cellular proliferation was related to cell cycle control, the effect on cell cycle control was analyzed by flow cytometry using HCT-116 (wt-p53) (FIG. 5A) and HCT-116 (null-p53) (FIG. 5B) cells transfected with non-specific control miR (left line graph) or miR-192 (right line graph). This experiment was performed as follows. The HCT-116 (wt-p53) and HCT-116 (null-p53) cells lines as described above (see Example 3) were transfected with miR-192 precursor and the non-specific control miRNA described as above (see Examples 1 and 2). At 36 hours after transfection, the cells were harvested and resuspended at 0.5-1×10^5 cells/ml in modified Krishan buffer containing 0.1% sodium citrate and 0.3% NP-40 and kept at 4° C. Before being analyzed by flow cytometry, cells were treated with 0.02 mg/ml RNase H and stained with 0.05 mg/ml propidium iodide (Sigma).

TS mRNA = assay: real time qRT-PCR of TS mRNA; format: cell-based; settings: U-2 OS cells
Description: (§2) Expression levels of TS or DHFR mRNA were analyzed using real time qRT-PCR analysis (FIG. 15).

TS = assay: western immunoblot of TS protein after transfection; format: cell-based; settings: 48 hours after transfection
Description: At 48 h after transfection with miR-215, miR-192 precursors or non-specific control miRNA, the cells were scraped and lysed in RIPA buffer (Sigma). Equal amounts of proteins were resolved by SDS-PAGE on 12% gels by the method of Laemmli, and transferred to polyvinylidene fluoride membranes (BIO-RAD Laboratories). The membranes were then blocked by 5% nonfat milk in TBS-T (Tris-buffered saline and 0.5% Tween-20) at room temperature for 1 h. The primary antibodies used for the analysis included mouse anti-TS mAb (1:400, Millipore), mouse anti-DHFR mAb (1:250, BD Bioscience), mouse anti-p53 mAb (1:1000, DO-1), mouse anti-p21 mAb (1:1000, F-5), and mouse anti-α-tubulin mAb (1:1000, TU-02) purchased from Santa Cruz Biotechnology. Horseradish peroxidase—conjugated antibodies against mouse (1:1000, Santa Cruz Biotechnology) were used as the secondary antibodies. Protein bands were visualized with a chemiluminescence detection system using the Super Signal substrate (BIO-RAD).
At 48 hours after transfection, proteins were extracted from miR-215-transfected cells and from control cells and changes in TS or DHFR protein levels were determined by western immunoblot analysis (FIG. 14).

DHFR mRNA [2] = assay: real time qRT-PCR of DHFR mRNA; format: cell-based; settings: U-2 OS cells
Description: as §2

DHFR protein = assay: Western immunoblot of DHFR protein after transfection; format: cell-based, human; settings: HCT-116 (wt-p53)
Description: In this experiment, human colon cancer cell lines, HCT-116 (wt-p53), cells were transfected with miR-192 or miR-24. The cells were maintained in McCoy's 5A medium (Life Technologies). The media was supplemented with 10% dialyzed fetal bovine serum (Hyclone Laboratories). The cell line were grown at 37° C. in a humidified incubator with 5% CO2.
The HCT-116 (wt-p53) cells tranfected as follows. The cells (2×10^5) were plated in 6-well plates and transfected with 100 nmol/L of either miR-192 or miR-24 precursors or nonspecific control miR (Ambion) after 24 h with Oligofectamine (Invitrogen) according to the manufacturer's instructions.
At 48 hours after transfection with miR-192 or miR-24 precursors or nonspecific control miRNA, the cells were scraped and lysed in radioimmunoprecipitation assay buffer (Sigma). […] Horseradish peroxidase-conjugated antibodies against mouse or rabbit (1:1,000; Santa Cruz Biotechnology) were used as the secondary antibodies.

HCT-116 (wt-p53) cells [3] = assay: cell cycle analysis by flow cytometry; format: cell-based, human; parameters: cell cycle profile G1/S / cell cycle profile G2/S: unit not given here
Description: as §1
miR-215 induces G2-arrest in HCT-116 (wt-p53) and U-2 OS cells. To investigate the mechanism by which miR-215 suppressed cell proliferation in HCT-116 (wt-p53) and U-2 OS cells, the impact of miR-215 on cell cycle control was analyzed by flow cytometry at 36 h after transfection. HCT-116 (wt-p53), HCT-116 (null-p53), U-2 OS and MG63 cells were transfected with miR-215 precursor and the non-specific control miRNA described as above. At 36 h after transfection, cells were harvested and resuspended at 0.5-1 10^5 cells/ml in modified Krishan buffer containing 0.1% sodium citrate and 0.3% NP-40 and kept at 4° C. Before analysis by flow cytometry, cells were treated with 0.02 mg/ml RNase H and stained with 0.05 mg/ml propidium iodide (Sigma).

p21 = assay: western immunoblot of p21 in HCT-116 (wt-p53) and U-2 OS cells; format: cell-based; settings: both HCT-116 (wt-p53) and U-2 OS cells, 48 h after transfection
From the text: miR-215 increases the expression of cell cycle control genes p53 and p21. p53 and p21, a downstream target of the p53 pathway of growth control, are reported to block cells at G2 checkpoint mainly through inhibiting activity of Cdc2, the cyclin-dependent kinase that normally drives cells into mitosis, which is the ultimate target of pathways that mediate rapid arrest in G2 in response to DNA damage. To further analyze the mechanism of cell proliferation inhibition by miR-215, we transfected miR-215 precursor into HCT-116 (wt-p53) and U-2 OS cells, and evaluated the levels of cell cycle control genes p53 and p21 by western immunoblot analysis.

DHFR mRNA [4] = assay: real time qRT-PCR of DHFR mRNA after transfection; format: cell-based, human; settings: HCT-116 (wt-p53), 24 h after transfection, GAPDH normalized
Description: The analysis was performed as follows. Total RNA, including miRNA, was isolated from cell lines by using TRIzol reagent (Invitrogen) according to the manufacturer's instructions at 24 h after transfection. cDNA was synthesized with the High Capacity cDNA synthesis kit (Applied Biosystems) using 2 μg of total RNA as the template and random primers. Real-time qRT-PCR analysis was done on the experimental mRNAs. The PCR primers and probes for DHFR, and the internal control gene GAPDH were purchased from Applied Biosystems. qRT-PCR was done on an ABI 7500HT instrument under the following conditions: 50° C., 2 min of reverse transcription; 95° C., 10 min; 95° C., 15 sec; 60° C., 1 min. The reaction was done for up to 40 cycles (n=3). GAPDH was used as an internal standard for normalization.

[5] = HCT-116 (null), 36 hours after transfection

B1: miR-192: microRNA miR-192 (SEQ ID NO:1), transfected into cells as miR-192 precursor (Ambion) (nucleic acid)
chain: GCCGAGACCGAGUGCACAGGGCUCUGACCUAUGAAUUGACAGCCAGUGCUCUCGUCUCCCCUCUGGCUGCCAAUUCCAUAGGUCACAGGUAUGUUCGCCUCAAUGCCAGC
modifications: delivered as precursor, further chemistry not given here
effect in combination with MTX (HCT-116 (wt-p53) cells [1]; MTX 25 nM): synergistic effect
cell proliferation reduced (HCT-116 (wt-p53) cells [1]; transfected cells in combination with MTX 25 nM): ~70%
cell cycle profile G1 (HCT-116 (null-p53) cells; [5]): 35.65%
cell cycle profile G1/S (HCT-116 (null-p53) cells; [5]): 0.79 ratio (unitless)
cell cycle profile G2 (HCT-116 (null-p53) cells; [5]): 19.06%
cell cycle profile G2/S (HCT-116 (null-p53) cells; [5]): 0.42 ratio (unitless)
cell cycle profile S (HCT-116 (null-p53) cells; [5]): 45.29%
G1 and G2 arrest (HCT-116 (null-p53) cells; HCT-116 (null-p53)): has not been observed
TS mRNA expression (TS mRNA): no reduction
TS protein levels (TS): clearly decreases
DHFR mRNA expression (DHFR mRNA [2]): no reduction
expression of DHFR protein (DHFR protein; 100 nmol/L precursor, 48 hours after transfection): clearly decreased
potency for decreasing DHFR expression (DHFR protein; compared with positive control miR-24): comparable to miR-24
cell cycle profile G1 (HCT-116 (wt-p53) cells [3]; 36 hours after transfection): 40.84%
cell cycle profile G1/S (HCT-116 (wt-p53) cells [3]; 36 hours after transfection): 2.83
cell cycle profile G2 (HCT-116 (wt-p53) cells [3]; 36 hours after transfection): 44.71%
cell cycle profile G2/S (HCT-116 (wt-p53) cells [3]; 36 hours after transfection): 3.09
cell cycle profile S (HCT-116 (wt-p53) cells [3]; 36 hours after transfection): 14.45%
G1 arrest (HCT-116 (wt-p53) cells [3]; vs non-specific miR): > 2 fold
G2 arrest (HCT-116 (wt-p53) cells [3]; vs non-specific miR): > 3 fold
p21 protein level (p21): significant increase
DHFR mRNA expression (DHFR mRNA [4]): no reduction
